Patent US20190241648A1 (STATEN BIOTECHNOLOGY B V, published 2019)
Ends that are not written are not given here.

Assays:
Assay in all cases: peptide microarray
ApoC3 peptide … G46V = target: T1, ApoC3 peptide … G46V (human, thioether (positions not given here); also: cyclic constrained)
T1 peptide: ARGWVTDVFSSLK
In short: (§1)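 Peptide microarrays of ApoC3-derived peptides incubated with antibody samples, then stained with goat anti-human IgG (Fc) DyLight680 (1:5000) and anti-HA DyLight800 (1:2000) control. Read-out by fluorescence scanning at intensities 7/7 (red/green); a secondary-only pre-stain checked background, HA frame peptides served as quality control.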

ApoC3 peptide … G46R = target: T2, ApoC3 peptide … G46R (human, thioether (positions not given here); also: cyclic constrained)
T2 peptide: ARGWVTDRFSSLK
In short: as §1

ApoC3 peptide … R40G = target: T3, ApoC3 peptide … R40G (human, not fully specified (bridges); also: cyclic constrained)
T3 peptide: AGGWVTDGFSSLK
In short: as §1

ApoC3 peptide … A39H = target: T4, ApoC3 peptide … A39H (human, cyclic constrained)
T4 peptide: HRGWVTDGFSSLK
In short: as §1

ApoC3 peptide … S49M = target: T5, ApoC3 peptide … S49M (human, cyclic constrained)
T5 peptide: ARGWVTDGFSMLK
In short: as §1

ApoC3 peptide … W42T = target: T6, ApoC3 peptide … W42T (human, not fully specified (bridges); also: cyclic constrained)
T6 peptide: ARGTVTDGFSSLK
In short: as §1

ApoC3 peptide … W42N = target: T7, ApoC3 peptide … W42N (human, not fully specified (bridges); also: cyclic constrained)
T7 peptide: ARGNVTDGFSSLK
In short: as §1

ApoC3 peptide … V43S = target: T8, ApoC3 peptide … V43S (human, not fully specified (bridges); also: cyclic constrained)
T8 peptide: ARGWSTDGFSSLK
In short: as §1

ApoC3 peptide … T44N = target: T9, ApoC3 peptide … T44N (human, not fully specified (bridges); also: cyclic constrained)
T9 peptide: ARGWVNDGFSSLK
In short: as §1

ApoC3 peptide … S49Q = target: T10, ApoC3 peptide … S49Q (human, cyclic constrained)
T10 peptide: ARGWVTDGFSQLK
In short: as §1

ApoC3 peptide … G41L = target: T11, ApoC3 peptide … G41L (human, also: cyclic constrained)
T11 peptide: ARLWVTDGFSSLK
In short: as §1

ApoC3 peptide … V43H = target: T12, ApoC3 peptide … V43H (human, not fully specified; cyclic constrained)
T12 peptide: ARGWHTDGFSSLK
In short: as §1

ApoC3 peptide … G46C = target: T13, ApoC3 peptide … G46C (human, also: cyclic constrained)
T13 peptide: ARGWVTDCFSSLK
In short: as §1

ApoC3 peptide … S49V = target: T14, ApoC3 peptide … S49V (human, not fully specified (bridges); also: cyclic constrained)
T14 peptide: ARGWVTDGFSVLK
In short: as §1

ApoC3 peptide … T44P = target: T15, ApoC3 peptide … T44P (human, not fully specified (bridges); also: cyclic constrained)
T15 peptide: ARGWVPDGFSSLK
In short: as §1

ApoC3 peptide … K51G = target: T16, ApoC3 peptide … K51G (human, thioether (positions not given here); also: cyclic constrained)
T16 peptide: ARGWVTDGFSSLG
In short: as §1

ApoC3 peptide … F47Y = target: T17, ApoC3 peptide … F47Y (human, also: cyclic constrained)
T17 peptide: ARGWVTDGYSSLK
In short: as §1

ApoC3 peptide … S49R = target: T18, ApoC3 peptide … S49R (human, not fully specified (bridges); also: cyclic constrained)
T18 peptide: ARGWVTDGFSRLK
In short: as §1

ApoC3 peptide … R40I = target: T19, ApoC3 peptide … R40I (human, not fully specified (bridges); also: cyclic constrained)
T19 peptide: AIGWVTDGFSSLK
In short: as §1

ApoC3 peptide … R40P = target: T20, ApoC3 peptide … R40P (human, not fully specified (bridges); also: cyclic constrained)
T20 peptide: APGWVTDGFSSLK
In short: as §1

ApoC3 peptide … V43I = target: T21, ApoC3 peptide … V43I (human, not fully specified; cyclic constrained)
T21 peptide: ARGWITDGFSSLK
In short: as §1

ApoC3 peptide … L50C = target: T22, ApoC3 peptide … L50C (human, not fully specified; cyclic constrained)
T22 peptide: ARGWVTDGFSSCK
In short: as §1

ApoC3 peptide … F47L = target: T23, ApoC3 peptide … F47L (human, not fully specified (bridges); also: cyclic constrained)
T23 peptide: ARGWVTDGLSSLK
In short: as §1

ApoC3 peptide … D45A = target: T24, ApoC3 peptide … D45A (human, not fully specified (bridges); also: cyclic constrained)
T24 peptide: ARGWVTAGFSSLK
In short: as §1

ApoC3 peptide … W42M = target: T25, ApoC3 peptide … W42M (human, not fully specified (bridges); also: cyclic constrained)
T25 peptide: ARGMVTDGFSSLK
In short: as §1

ApoC3 peptide … S49L = target: T26, ApoC3 peptide … S49L (human, cyclic constrained)
T26 peptide: ARGWVTDGFSLLK
In short: as §1

ApoC3 peptide … T44S = target: T27, ApoC3 peptide … T44S (human, not fully specified (bridges); also: cyclic constrained)
T27 peptide: ARGWVSDGFSSLK
In short: as §1

ApoC3 peptide … S49E = target: T28, ApoC3 peptide … S49E (human, cyclic constrained)
T28 peptide: ARGWVTDGFSELK
In short: as §1

ApoC3 peptide … G41R = target: T29, ApoC3 peptide … G41R (human, also: cyclic constrained)
T29 peptide: ARRWVTDGFSSLK
In short: as §1

ApoC3 peptide … A39D = target: T30, ApoC3 peptide … A39D (human, cyclic constrained)
T30 peptide: DRGWVTDGFSSLK
In short: as §1

B1: anti-ApoC3 antibody 14C7 (antibody, V domains shown)
VH: QVQVQESGPGLVKPSQTLSLTCTVSGGSITTNSYYWSWIRQPPGKGLEWMGAIDYSGDTYYSPSLKSRTSISRDTSKNQFTLQLTSVTPEDTAVYYCVSRIPTGEYWGQGTQVTVSS
VL: QTVVTQEPSLSVSPGGTVTLTCGLNSGSVTSSNYPDWYQQTPGQAPRLLIYNTNSRHSGVPSRFSGSISGNKAALTITGAQPEDEADYYCALYMGSDSVVFGGGTHLTVL
notes: it was detected with goat anti-human IgG (Fc); also called mAb 14C7; llama antibody 14C7
% of binding to wild-type peptide (ApoC3 peptide … G46V): 0%
% of binding to wild-type peptide (ApoC3 peptide … G46R): 0.3%
% of binding to wild-type peptide (ApoC3 peptide … R40G): 62.9%
% of binding to wild-type peptide (ApoC3 peptide … A39H): 69.4%
% of binding to wild-type peptide (ApoC3 peptide … S49M): 1.86%
% of binding to wild-type peptide (ApoC3 peptide … W42T): 186%
% of binding to wild-type peptide (ApoC3 peptide … W42N): 118%
% of binding to wild-type peptide (ApoC3 peptide … V43S): 1.54%
% of binding to wild-type peptide (ApoC3 peptide … T44N): 2.49%
% of binding to wild-type peptide (ApoC3 peptide … S49Q): 0.33%
% of binding to wild-type peptide (ApoC3 peptide … G41L): 6.27%
% of binding to wild-type peptide (ApoC3 peptide … V43H): 14.6%
% of binding to wild-type peptide (ApoC3 peptide … G46C): 0%
% of binding to wild-type peptide (ApoC3 peptide … S49V): 0.59%
% of binding to wild-type peptide (ApoC3 peptide … T44P): 0%
% of binding to wild-type peptide (ApoC3 peptide … K51G): 5.77%
% of binding to wild-type peptide (ApoC3 peptide … F47Y): 67.7%
% of binding to wild-type peptide (ApoC3 peptide … S49R): 0.74%
% of binding to wild-type peptide (ApoC3 peptide … R40I): 35.1%
% of binding to wild-type peptide (ApoC3 peptide … R40P): 52.7%
% of binding to wild-type peptide (ApoC3 peptide … V43I): 41%
% of binding to wild-type peptide (ApoC3 peptide … L50C): 0%
% of binding to wild-type peptide (ApoC3 peptide … F47L): 4.56%
% of binding to wild-type peptide (ApoC3 peptide … D45A): 45.3%
% of binding to wild-type peptide (ApoC3 peptide … W42M): 79.4%
% of binding to wild-type peptide (ApoC3 peptide … S49L): 0%
% of binding to wild-type peptide (ApoC3 peptide … T44S): 1.12%
% of binding to wild-type peptide (ApoC3 peptide … S49E): 0%
% of binding to wild-type peptide (ApoC3 peptide … G41R): 19.4%
% of binding to wild-type peptide (ApoC3 peptide … A39D): 50.7%
